Assay results published in paper PMC3797442, “Analysis of the role of Arabidopsis class I TCP genes AtTCP7, AtTCP8, AtTCP22, and AtTCP23 in leaf development”.

Key:
AtTCP7 = AtTCP7 (Arabidopsis thaliana, UniProt Q9FMX2 1-250); test: EMSA; LightShift Chemiluminescent EMSA Kit (Pierce), manufacturer's instructions; buffer, salt, pH and temperature not stated; conditions: protein: recombinant; tags: N-terminal GST (pDEST15); chain copies: 2; label: biotin (both strands); blunt
AtTCP22;AtTCP23 = AtTCP22;AtTCP23 (Arabidopsis thaliana;Arabidopsis …, UniProt Q9C7G4;Q9LQF0 1-375;1-341, |); test: EMSA; heterodimer; LightShift Chemiluminescent EMSA Kit (Pierce), manufacturer's instructions; buffer, salt, pH and temperature not stated; conditions: protein: recombinant;recombinant; tags: N-terminal GST (pDEST15);N-terminal GST (pDEST15); copies: 1;1; label: biotin (both strands); blunt
Sequence of AtTCP22;AtTCP23 (Q9C7G4 whole entry, chain 1 of 2): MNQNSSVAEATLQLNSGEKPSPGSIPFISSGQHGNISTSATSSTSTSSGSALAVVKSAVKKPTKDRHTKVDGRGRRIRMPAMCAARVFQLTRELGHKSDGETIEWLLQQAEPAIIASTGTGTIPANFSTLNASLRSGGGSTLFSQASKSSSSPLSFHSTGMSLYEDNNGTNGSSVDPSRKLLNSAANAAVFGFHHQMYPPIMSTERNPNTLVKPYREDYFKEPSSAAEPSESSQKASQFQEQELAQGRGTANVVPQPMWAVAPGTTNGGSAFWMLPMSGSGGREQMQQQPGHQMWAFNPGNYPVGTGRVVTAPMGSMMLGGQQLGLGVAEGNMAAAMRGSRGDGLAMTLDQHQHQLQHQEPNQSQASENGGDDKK
Sequence of AtTCP22;AtTCP23 (Q9LQF0 whole entry, chain 2 of 2): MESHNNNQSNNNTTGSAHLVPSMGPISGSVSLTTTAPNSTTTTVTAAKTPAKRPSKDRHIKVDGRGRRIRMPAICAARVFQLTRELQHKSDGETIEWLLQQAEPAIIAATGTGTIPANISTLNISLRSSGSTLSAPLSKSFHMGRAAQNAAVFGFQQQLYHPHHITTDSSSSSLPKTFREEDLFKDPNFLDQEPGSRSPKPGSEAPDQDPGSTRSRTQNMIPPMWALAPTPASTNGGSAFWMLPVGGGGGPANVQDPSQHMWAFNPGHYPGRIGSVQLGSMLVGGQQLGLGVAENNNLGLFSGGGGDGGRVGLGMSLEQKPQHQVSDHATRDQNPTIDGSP

AtTCP7;AtTCP23 = AtTCP7;AtTCP23 (Arabidopsis thaliana;Arabidopsis …, UniProt Q9FMX2;Q9LQF0 1-250;1-341, |); test: as above; conditions: protein: recombinant;recombinant; tags: N-terminal GST (pDEST15);N-terminal GST (pDEST15); copies: 1;1; label: biotin (both strands); blunt
Sequence of AtTCP7;AtTCP23 (Q9FMX2 whole entry, chain 1 of 2): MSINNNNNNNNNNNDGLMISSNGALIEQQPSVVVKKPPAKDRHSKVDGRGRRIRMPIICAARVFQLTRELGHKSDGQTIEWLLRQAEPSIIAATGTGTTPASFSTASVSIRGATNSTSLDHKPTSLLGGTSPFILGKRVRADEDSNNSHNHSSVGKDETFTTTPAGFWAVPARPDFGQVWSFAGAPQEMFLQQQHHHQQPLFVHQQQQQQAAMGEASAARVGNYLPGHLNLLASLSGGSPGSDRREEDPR
Sequence of AtTCP7;AtTCP23 (Q9LQF0 whole entry, chain 2 of 2): as the sequence (Q9LQF0 whole entry, chain 2 of 2) above

AtTCP7;AtTCP22 = AtTCP7;AtTCP22 (Arabidopsis thaliana;Arabidopsis …, UniProt Q9FMX2;Q9C7G4 1-250;1-375, |); test: as above; conditions: protein: recombinant;recombinant; tags: N-terminal GST (pDEST15);N-terminal GST (pDEST15); copies: 1;1; label: biotin (both strands); blunt
Sequence of AtTCP7;AtTCP22 (Q9FMX2 whole entry, chain 1 of 2): as the sequence (Q9FMX2 whole entry, chain 1 of 2) above
Sequence of AtTCP7;AtTCP22 (Q9C7G4 whole entry, chain 2 of 2): as the sequence (Q9C7G4 whole entry, chain 1 of 2) above

Measured: binding result

Sequence of AtTCP7 (Q9FMX2 whole entry): as the sequence (Q9FMX2 whole entry, chain 1 of 2) above

B1: STM promoter K-box probe, 76 bp (dsDNA)
DNA 1: AACTATCACTATTTAGAATTTTCAATGTGGAAAAGGAAGCTGATTGTTGAAGCATAAATCCCGGGAGACCACTTTT
DNA 2: AAAAGTGGTCTCCCGGGATTTATGCTTCAACAATCAGCTTCCTTTTCCACATTGAAAATTCTAAATAGTGATAGTT
binds: all assays above
